Assays:
hSIRPαV4 (NA11832_V4) = molecular target: T1, hSIRPαV4 (NA11832_V4) (human, UniProt P78324 31-504); assay: CELISA, CHO-K1 transfectants; average of two experiments
T1 construct: also called human SIRPαV4
T1 chain: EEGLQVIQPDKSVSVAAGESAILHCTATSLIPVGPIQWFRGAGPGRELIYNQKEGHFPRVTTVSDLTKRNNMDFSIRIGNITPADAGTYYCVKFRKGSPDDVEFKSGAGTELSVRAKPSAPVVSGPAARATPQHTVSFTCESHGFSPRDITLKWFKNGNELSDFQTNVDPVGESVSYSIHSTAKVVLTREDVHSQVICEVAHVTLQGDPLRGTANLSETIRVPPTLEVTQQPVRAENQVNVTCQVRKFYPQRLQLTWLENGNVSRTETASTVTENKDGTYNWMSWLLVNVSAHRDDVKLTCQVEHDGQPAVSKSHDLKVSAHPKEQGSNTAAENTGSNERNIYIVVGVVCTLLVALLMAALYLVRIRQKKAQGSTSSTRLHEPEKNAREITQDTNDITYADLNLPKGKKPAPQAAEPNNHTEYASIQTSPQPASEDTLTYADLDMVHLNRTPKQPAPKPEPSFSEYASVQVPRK
Description: The binding specificity of antibody hSIRPα.50A to hSIRPα was compared antibody KWAR23 (Canadian Patent 2939293 A1), in a CELISA format. CHO-K1 cells were transiently transfected with hSIRPαV1, hSIRPαV2, hSIRPβ1, and hSIRPγ (GenBank accession: NM_018556.3) (SEQ ID NO: 39) cDNAs. Subsequently, hSIRPα binding was assessed by CELISA using CHO-K1.hSIRPαV1, CHO-K1.hSIRPαV2, CHO-K1.hSIRPβ1, and CHO-K1.hSIRPγ cells. Detection of bound antibody was performed with goat-anti-mouse IgG-HRP (Southern Biotech) for mouse antibodies including hSIRPα.50A and control antibodies or, alternatively, with goat-anti-human IgG-HRP conjugate (Jackson Immuno Research) for the KWAR23 antibody. KWAR23 (SEQ ID NO: 130; SEQ ID NO: 131) was expressed as a chimeric human IgG4 kappa antibody in CHO cells. As shown in FIG. 2 and the following Table 9, KWAR23 antibody cross-reacts with all members of the SIRP receptor family tested: it binds to hSIRPαV1, hSIRPαV2, hSIRPβ1, and hSIRPγ.
In addition, the specificity of hSIRPα.50A for all known of hSIRPα alleles (allelic variants as described by Takenaka et al., 2007, Nat Immunol. 8:1313-1323) was further investigated by CELISA using the same strategy as above. To this end, hSIRPα.50A binding was assessed using CHO-K1 cells that were transiently transfected with cDNAs encoding full length hSIRPαV1, hSIRPαV2, hSIRPαV3 (NA07056_V3) (SEQ ID NO: 43), hSIRPαV4 (NA11832_V4) (SEQ ID NO: 45), hSIRPαV5 (NA18502_V5) (SEQ ID NO: 47), hSIRPαV6 (NA18507_V6) (SEQ ID NO: 49), hSIRPαV8 (NA18570_V8) (SEQ ID NO: 51), and hSIRPαV9 (NA18943_V9) (SEQ ID NO: 53).

human SIRPα variant 1 = molecular target: T2, human SIRPα variant 1 (human, UniProt P78324 31-504); assay: flow cytometry, blockade of DyLight488-hCD47/Fc binding to U-937 cells
T2 construct: full length ORF on transfected CHO-K1 or HEK293 cells; entry includes the signal peptide; also called hSIRPαV1; SIRPαV1
Description: hCD47 blockade was assessed by flow cytometry for the full panel of humanized hSIRPα.40A antibodies. To this end, the U-937 (ATCC CRL-1593.2) monocyte cell line was used as the source of hSIRPα in the assay. U-937 cells were seeded in 96-well round bottomed tissue culture plates and incubated for 45 minutes with FcR Blocking Reagent (Miltenyi Biotec) and the parental or humanized hSIRPα.40A antibody variants (20 μg/mL and dilutions thereof) in PBS/1% BSA at 4° C. […] After this labeling procedure, cells were washed two times, resuspended in PBS/1% BSA containing 0.1 μg/mL DAPI (BioLegend), and analysed by flow cytometry on the FACSVerse (BD Biosciences). Data were processed and analysed with FlowJo V10 software (FlowJo, LLC) and plotted using GraphPad Prism 6 (GraphPad Software, Inc.).
As depicted in FIG. 18 and the following Table 21, binding of recombinant hCD47 fused to an Fc domain of human IgG1 was monitored in the presence of increasing amounts of the humanized hSIRPα.40A antibody variants. Humanized hSIRPα.40A blocked the hSIRPα/hCD47 interaction, using the flow cytometry-based method described above. […] IC50 values represent the concentration at which half of the inhibition is observed.

human SIRPβ1 = molecular target: T3, human SIRPβ1 (human, UniProt O00241 30-398); assay: CELISA, CHO-K1 transfectants
T3 construct: also called hSIRPβ1
Description: (§1) Reactivity was confirmed using CHO-K1 cells (ATCC CCL-61) expressing a cDNA encoding the full length open reading frame of hSIRPαV1, hSIRPαV1(P74A), hSIRPαV2, and hSIRPβ1 subcloned into the pCI-neo vector (Promega, Madison, Wis.). CHO-K1.hSIRPαV1, CHO-K1.hSIRPαV1(P74A), CHO-K1.hSIRPαV2, and CHO-K1.hSIRPβ1 cells were seeded in culture medium (DMEM-F12 (Gibco) supplemented with 5% New Born Calf Serum (BioWest) and Pen/Strep (Gibco)) in 96-well flat-bottom tissue culture plates and incubated at 37° C., 5% CO₂ and 95% humidity for 24 hours. Subsequently, culture medium was removed and cells were incubated for 1 hour at 37° C., 5% CO₂ and 95% humidity with purified hSIRPα antibodies (used at 10 μg/mL and dilutions thereof). Next, cells were washed with PBS-T and incubated for 1 hour at 37° C., 5% CO₂ and 95% humidity with goat-anti-mouse IgG-HRP (Southern Biotech). Subsequently, cells were washed three times with PBS-T and immunoreactivity against hSIRPαV1, hSIRPαV1(P74A), hSIRPαV2, and hSIRPβ1 was visualized with TMB Stabilized Chromogen (Invitrogen). Reactions were stopped with 0.5 M H₂SO₄ and absorbances were read at 450 and 610 nm.

hSIRPαV1(P74A) = molecular target: T4, hSIRPαV1(P74A) (human, UniProt P78324 31-504); assay: CELISA, CHO-K1 transfectants
T4 construct: also called P74A variant of hSIRPαV1
Description: as §1

T3 sequence (O00241 30-398 limits assumed): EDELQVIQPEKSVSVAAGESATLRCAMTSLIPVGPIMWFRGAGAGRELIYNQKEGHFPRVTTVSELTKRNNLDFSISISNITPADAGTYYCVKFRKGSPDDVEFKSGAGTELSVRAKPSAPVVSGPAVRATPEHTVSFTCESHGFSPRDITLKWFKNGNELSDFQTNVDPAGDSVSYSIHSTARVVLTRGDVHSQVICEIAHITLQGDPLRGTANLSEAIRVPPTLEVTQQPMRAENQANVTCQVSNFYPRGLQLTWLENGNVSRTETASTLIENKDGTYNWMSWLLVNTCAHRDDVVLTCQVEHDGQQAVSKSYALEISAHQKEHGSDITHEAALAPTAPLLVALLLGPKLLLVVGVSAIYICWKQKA

B1: hSIRPα.50A (antibody, V domains shown)
VH: QVQLQQSGPELVKPGASVRISCKASGFTFTNYYIHWVKQRPGQGLEWIGWIYPGNVNTKYNEKFKAKATLTADKSSTTAYMQLSSLASEDSAVYFCARPTIIATDFDVWGAGTTVTVSS
VL: DIVMTQSHKFMSTSVGDRVNITCKASQGVGTAVGWYQQKPGQSPRLLIYWASTRHTGVPDRFTGSGSGTDFSLAISNVQSEDLADYFCQQYSTYPFTFGGGTNLEIK
notes: light chain constant domain not tied; also called mouse hSIRPα.50A; hSIRPα.50A.mIgG1
hSIRPαV4 (NA11832_V4)
  EC50: 824 pM

B2: hSIRPα.40A (antibody, mouse IgG1, kappa, V domains shown)
VH: EVQFQQSGTVLARPGTSVKMSCKASGSTFTSYWMHWVKQGPGQGLQWIGAIYPVNNDTTYNQKFKGKAELTVVTSTSTAYMEVSSLTNEDSAVYYCTRSFYYSLDAAWFVYWGQGTLVTVSA
VL: DIQMTQSPSSLSASLGERVSLTCRASQDIGSRLNWLQQEPDGTIKRLIYATSSLDSGVPKRFSGSRSGSDYSLTISGLESEDFVDYYCLQYASSPFTFGGGTKLEINR
notes: mouse antibody, full chains without signal peptide; also called mouse hSIRPα.40A
Human SIRPα variant 1
  IC50: 1120 pM

B3: KWAR23 (antibody, V domains shown)
VH: EVQLQQSGAELVKPGASVKLSCTASGFNIKDYYIHWVQQRTEQGLEWIGRIDPEDGETKYAPKFQDKATITADTSSNTAYLHLSSLTSEDTAVYYCARWGAYWGQGTLVTVSS
VL: QIVLTQSPAIMSASPGEKVTLTCSASSSVSSSYLYWYQQKPGSSPKLWIYSTSNLASGVPARFSGSGSGTSYSLTISSMEAEDAASYFCHQWSSYPRTFGAGTKLELK
Human SIRPβ1
  EC50: 33 pM
hSIRPαV1(P74A)
  EC50: 49 pM
